The results in this text go back to patent US11453711B2, “Fusion proteins of GLP-1 and GDF15 and conjugates thereof” (BEIJING QL BIOPHARMACEUTICAL CO., LTD., priority 2019, dated 2022).

Series [1] in a line: Separate DIO mice study with inactivated control molecules, daily sc 22 days. Type of series: in vivo, DIO mice (C57BL/6 mice on high fat diet). Here is the method: FIGS. 9A-9G show In vivo efficacy in DIO mice. To evaluate the body weight, food intake and glucose effects of the fusion proteins, 17 week old DIO mice (C57BL/6 mice on high fat diet for 13 weeks) were dosed everyday subcutaneously with different concentrations of proteins for 22 days. […] Data are expressed as mean values and standard error (SEM) for FIGS. 9A and 9C-G. n=5 for each treatment group. For FIG. 9B, a pooled food intake was measured for each treatment group.
17 week old DIO male C57BL/6 mice (˜45 g) were injected everyday subcutaneously with designated proteins (i.e., MLC089, MLC093) for 28 days. Food intake and body weight were measured daily and five animals were used for each treatment group. Fasting glucose was also monitored on designated days. Body weight and glucose were monitored for each individual animal, but food intake for each group animals was measured together. Day 1 and Day 28 are first day and last day of molecule dosage. % BW loss=100*(BW on Day n-BW on Day 1)/(BW on Day 1). Cumulative food intake on Day n represents sum of food intake from Day 1 to Day n. Terminal blood was collected and EDTA-2K plasma was prepared and frozen at −80 C for biomarker measurement. Liver was also collected and frozen in liquid nitrogen and store at −80 C. Data are indicated as mean values and standard error (SEM) or pooled values.

Series [2] in a line: Efficacy in db/db mice: body weight, food intake, glucose, biomarkers, daily sc 14 days. Type of series: in vivo.
Series [3] is described as follows: PK study in non-human primates, single sc dose 5 nmol/kg, plasma ELISA. As to conditions: monkey, single sc dose 5 nmol/kg. In general terms: ELISA stands for enzyme-linked immunosorbent assay.
Protocol: Plasma samples were collected pre-dose (−5 min), 2 hr, 4 hr, 6 hr, 8 hr, 24 hr, 48 hr, 72 hr, 96 hr, 120 hr, 144 hr, 216 hr, 288 hr, 360 hr, 432 hr and 504 hr after the injection. The concentrations of the fusion protein conjugates in the plasma were measured by an ELISA assay which has immunoreactivity towards both GDF15 and intact N-terminal of GLP-1. Based on the graph showing plasma concentration of each protein versus time after subcutaneous injection, the pharmacokinetic parameters (including Tmax, Cmax, T1/2, AUC) were calculated by WinNonlin software.
Setting [4] is: 30 nmol/kg, FIG. 8A-C, versus Semaglutide, Tirzepatide and MLC014.

B1: MLC093: fusion polypeptide SEQ ID NO: 381 conjugated with Moiety B at 33C of Linker (conjugate)
chain: HGEGTFTSDVSSYLEEQAAKEFIAWLVRGGGGAQPGAQPGAQPGAQPGAQPGAQPGAQPGAQPCQEPGAQPGQEPGAQPGQEPGAQPGQEPGAQPGQEPGAQPGQEPGAQPARQGDHCPLGPGRCCRLHTVRASLEDLGWADWVLSPREVQVTMCIGACPSQFRAANLHAQIKTSLHRLKPDTVPAPCCVPASYNPMVLIQKTDTGVSLQTYDDLLAKDCHCI
modifications: Moiety B conjugated at linker Cys33
Broadly, the Tmax is the time from dosing to the highest level. Regarding B1, the liver triglyceride contents entry in series [1] (Day 22, FIG. 9G, relative to vehicle or MLC114 and MLC113) is given as “reduction of liver triglyceride contents”. Besides, in series [1] (separate DIO study, FIG. 9A-9G, versus MLC114 and MLC113), the efficacy entry is “better efficacy than corresponding control molecules having inactivated GLP-1 or GDF15 mutants”. In addition, the body weight reduction entry in series [1] (separate DIO study, FIG. 9A, versus MLC114 and MLC113) is “better body weight reduction, food intake suppression and glucose control”. Also, in series [1] (separate DIO study, FIG. 9B, versus MLC114 and MLC113), the food intake suppression result was “better body weight reduction, food intake suppression and glucose control”. The glucose control entry in series [1] (separate DIO study, FIG. 9C, versus MLC114 and MLC113) is “better body weight reduction, food intake suppression and glucose control”. The plasma triglyceride level result in series [1] (terminal plasma Day 22, FIG. 9D, relative to vehicle or MLC114 and MLC113) was “therapeutic efficacy in reducing plasma triglyceride, cholesterol and insulin levels”. Also, in series [1] (terminal plasma Day 22, FIG. 9E, relative to vehicle or MLC114 and MLC113), the plasma cholesterol level result is “therapeutic efficacy in reducing plasma triglyceride, cholesterol and insulin levels”. Also, in series [1] (terminal plasma Day 22, FIG. 9F, relative to vehicle or MLC114 and MLC113), the plasma insulin level entry was “therapeutic efficacy in reducing plasma triglyceride, cholesterol and insulin levels”. In addition, in series [2] (setting [4]), the body weight loss entry is “more body weight loss, food intake suppression and glycemic control”; the food intake suppression result is “more body weight loss, food intake suppression and glycemic control”; the glycemic control entry was “more body weight loss, food intake suppression and glycemic control”. In series [2] (Day 15, FIG. 8I), the liver triglyceride content result was “a trend in reducing liver triglyceride content”. The efficacy result in series [2] (FIG. 8 study) was “better efficacy than Semaglutide and GDF15 derivative (MLC014)”. Besides, the plasma triglyceride concentration entry in series [2] (terminal plasma Day 15, FIG. 8G) is “induced the reduction”. Moreover, the “plasma ALT concentration” value in series [2] (terminal plasma Day 15, FIG. 8H) is “induced the reduction”. Further, in series [3], the “AUC0-96 h” value was 3.843 µM·h, the “Terminal t1/2” value came to 41 h and the “Tmax” value turned out to be 16 h. In addition, the Cmax in series [3] (read-out: Cmax (nmol/L)) turned out to be 56.2 nmol/L.
